# Where no end group is shown, it is not given here.
# B1: immunizing peptide CGGGESVLTLK (peptide)
# peptide: CGGGESVLTLK
# modifications: also: conjugated to KLH for immunization
# notes: Conjugated to KLH for immunization; also called peptide antigen; peptide ESVLTLK424
# B2: mouse monoclonal antibody 26A6 (antibody, mouse IgG2b, kappa, V domains shown)
# VH: EVQLQQSGPVLVKPGASVKMSCKASGYTFTDFYLNWVKQSHGKTLEWIGVINPYNGITRYNQKFGGTATLTVDKSSSTAYMELNSLTSEDSAVYYCSRGGKTYYFDYWGQGTTLTVSP
# VL: DVVMTQSPLSLPVSLGDQASISCRSSQSLVHSNGNTYLHWYLQKPGQSPKLLIYKVSNRFSGVPDRFSGSGSGTDFTLKINRVEAEDLGVYFCSQSTHVPPVTFGGGTKLEIKR
# notes: used as hybridoma supernatant or Protein G-purified; also called 26A6 mAb; hybridoma ATCC PTA-126751
# Tests used:
# [1] = target: B2; experiment: competition in immunofluorescence of human brain sections
# Experimental: Slides were baked in a 40° C. oven overnight, then deparaffinized using SafeClear (Fisher Scientific, Hampton, NH), and rehydrated through a series of alcohols and finally into PBS. Antigen retrieval was carried out in pressurized decloaking chamber (BioCare Medical, Concord, CA), according to manufacturer's directions using the Borg antigen retrieval solution (BioCare Medical, Concord, CA). Following antigen retrieval, slides were washed 3× in PBS. For sections designated for staining with the β-amyloid antibody downstream, the sections were treated with 70% formic acid for 5 mins, then washed. All sections were treated with 3% H₂O₂ in methanol to block endogenous […] activity. Slides were washed in PBS and sections were either stained for immunofluorescence or immunohistochemistry.
# For immunofluorescence, sections were incubated in blocking solution (PBS with 3% bovine serum albumin, 5% goat serum, and 0.05% Triton X 100) for 30 minutes, and incubated overnight at room temperature in primary antibody in that same blocking solution. Primary antibodies used were: rabbit anti-GFAP (1:200; catalog #12389, Cell Signaling Technology, Danviers, MA) and mouse 26A6 hybridoma supernatants diluted 1:5 or 10 ug/ml of purified 26A6 antibody. Sometimes 75 μg/ml immunizing peptide was included with the 26A6 antibody as a negative control. […]
# [2] = target: B1; experiment: ELISA on the immunizing peptide
# Experimental: These mice were selected for further boosting and fusion with a Sp2/0 myeloma partner. The resulting hybridomas were screened first in ELISA assays to the immunizing peptide and secondly in Western blot assays to the uncleaved and cleaved CN, to confirm that they selectively bound the cleaved CN. A positive clone was identified-26A6. This clone was developed/subcloned further and characterized as to isotype. 26A6 is an IgG2b with a kappa light chain.
# ELISA assays were carried out at GenScript. The immunizing peptide itself was bound to plates at a concentration of 1 μg/ml, 100 μl per well and supernatants from the hybridomas were used to bind to the peptide. An anti-IgG-HRP conjugated secondary antibody was used to detect the primary 26A6 antibody.
binding result [1],binding result [2],Binder
binds,,B1
,binds,B2
